In patent publication US20060286112A1:
Residue numbers refer to the chain shown, from its start. Each block holds one binder with its values, some of them ahead of it.

How the values were obtained:
[1] = substrate: I domain-GST, recombinant GST fusion protein containing amino acids 127-340 of the human VLA-1 α1 subunit (human) (UniProt P56199); assay: SPR, mAb captured on anti-human IgG, I domain-GST in solution, no Mg2+
[2] = substrate: I domain-GST, recombinant GST fusion protein containing amino acids 127-340 of the human VLA-1 α1 subunit (human) (UniProt P56199); assay: competition: I domain-GST binding to immobilized collagen IV, anti-GST-HRP
[3] = substrate: I domain-GST, recombinant GST fusion protein containing amino acids 127-340 of the human VLA-1 α1 subunit (human) (UniProt P56199); assay: SPR, mAb captured on anti-human IgG, I domain-GST in solution, 1 mM Mg2+, titration screen (*)
[4] = molecular target: biotinylated I domain-GST (human) (UniProt P56199); assay: competition: I domain-btn binding to immobilized collagen IV, streptavidin-HRP
[5] = substrate: I domain-GST, recombinant GST fusion protein containing amino acids 127-340 of the human VLA-1 α1 subunit (human) (UniProt P56199); assay: SPR, mAb captured on anti-human IgG, I domain-GST in solution, no Mg2+, titration screen (*)
[6] = substrate: I domain-GST, recombinant GST fusion protein containing amino acids 127-340 of the human VLA-1 α1 subunit (human) (UniProt P56199); assay: SPR, mAb captured on anti-human IgG, I domain-GST in solution, 1 mM Mg2+

Sequence of I domain-GST, recombinant GST fusion protein containing amino acids 127-340 of the human VLA-1 α1 subunit (human) (P56199 151-364 limits assumed, form in doubt): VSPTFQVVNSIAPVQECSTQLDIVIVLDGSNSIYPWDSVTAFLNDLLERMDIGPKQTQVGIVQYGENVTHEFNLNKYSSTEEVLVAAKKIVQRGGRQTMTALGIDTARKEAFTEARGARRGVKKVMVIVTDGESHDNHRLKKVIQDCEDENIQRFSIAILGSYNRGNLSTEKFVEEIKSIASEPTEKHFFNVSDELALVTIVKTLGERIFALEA

B4: 2.1 (antibody, V domains shown)
VH: QVQLQESGPGLVKPSQTLSLTCTVSGGSISSGGYYWSWIRQHPGKGLEWIGYIYNSGSTYYNPSLKSRGTISADTSKNQFSLKLSSVTAADTAVYYCARGSSSYYWYFDLWGRGTLVTVSS
VL: DIQMTQSPSSMSASVGDRVTITCRASQRISSNLNWYQQKPGKAPKFLIYGASSLQSGVPSRFSGSGSGTDFTLTISSLRPEDFATYYCQQSYSTPYTFGPGTKVDIK
Kd [1]: 4.62 nM
koff [1]: 0.00211 s⁻¹
kon [1]: 456000 M⁻¹ s⁻¹

B6: 2.7 (antibody, V domains shown)
VH: EVQLVESGGGLVKPGGSLRLSCAASGFTFSNAWMSWVRQAPGKGLEWVGRIKRKTDGETTDYAAPVKGRFTISRDDSRNTLYLQMNSLKTEDTAVYYCTIYTYYYGMDVWGQGTTVTVSS
VL: DIQMTQSPSSLSASVGDRVTITCRASQSINNYLNWYQQKPGKAPKLLIYAASSLESGVPSRFSGSGSGTDFTLTISSLQPEDFATYYCQQSYSTPPTFGQGTKVEIK
koff [5]: 8.22e-05 s⁻¹
kon [5]: 134000 M⁻¹ s⁻¹
IC50 [2]: 6.4 nM
Kd [3]: 0.117 nM
koff [3]: 3.77e-05 s⁻¹
kon [3]: 321000 M⁻¹ s⁻¹
IC50 [4]: 2.4 nM

B8: 2.19 (antibody, V domains shown)
VH: QVQLQESGPGLVKPSETLSLTCTVSGDSISSYYWSWIRQPPGKGLEWIGYVYYSGSTNYNPSLKSRVTMSVDTSKNQFSLKLSSVTAADTAVYYCARDLELYAFDIWGQGTMVTVSS
VL: EIVLTQFPGTLSLSPGERVTLSCRASQSVSSTYVVWYQQKPGQAPRLLIYGASSRATGIPDRFSGSGSGTDFTLTISRLEPEDFAVYYCQQHGSSPWTFGQGTKVEIK
Kd [1]: 0.478 nM
koff [1]: 5.93e-05 s⁻¹
kon [1]: 124000 M⁻¹ s⁻¹
IC50 [2]: 7.4 nM
Kd [6]: 0.243 nM
koff [6]: 0.000131 s⁻¹
kon [6]: 538000 M⁻¹ s⁻¹
IC50 [4]: 3 nM

B10: 2.11 (antibody, V domains shown)
VH: QVQLQESGPGLVKPSQTLSLTCTVSGGSINSGGYYWSWIRQHPGKGLEWIGYIFYSGSTYYNPSLKSRVNISVDTSKNQFSLKMSSVTAADTAVYYCARDQDGFDYWGQGTLVTVSS
VL: DIVMTQTPLSLPVTPGEPASISCRSSQSLLDSDDGNTYLDWYLQKPGQSPQLLIYTLSYRASGVPDRFSGSGSGTDFTLKISRVEAEDVGVYYCMQRIEFPWTFGQGTKVEIK
Kd [1]: 0.889 nM
koff [1]: 0.000208 s⁻¹
kon [1]: 234000 M⁻¹ s⁻¹
Kd [3]: 0.025 nM
koff [3]: 8e-06 s⁻¹
kon [3]: 318000 M⁻¹ s⁻¹

The next lines start with the values.

Kd [1]: 1.63 nM
koff [1]: 0.000154 s⁻¹
kon [1]: 94600 M⁻¹ s⁻¹
IC50 [2]: 12 nM
Kd [3]: 0.255 nM
koff [3]: 0.000136 s⁻¹
kon [3]: 533000 M⁻¹ s⁻¹
IC50 [4]: 7.6 nM
B1: 6.17 (antibody, V domains shown)
VH: EVQLVQSGAEVKKPGESLRISCKGSGYSVSSYWIGWVRQMPGKGLEWMGIIYPGDSDTRYSPSFQGQVTISADKSISTAFLQWISLKASDTAMYYCARLQGDCSGGSCYGHFDYWGQGTLVTVS
VL: EIVLTQSPGTLSLSPGERATLSCRASQTISSGYLAWYQQKPAQAPRLLIYVASRRATGIPDRFSGSGSGTDFTLTISRLEPEDFAVYYCQQYGSSSWTFGQGTTVEIK

Kd [5]: 0.574 nM
koff [5]: 7.08e-05 s⁻¹
kon [5]: 123000 M⁻¹ s⁻¹
IC50 [2]: 7.6 nM
Kd [3]: 0.138 nM
koff [3]: 7.2e-05 s⁻¹
kon [3]: 523000 M⁻¹ s⁻¹
IC50 [4]: 3.3 nM
B2: 6.18 (antibody, V domains shown)
VH: B1 VH with S30T, F80Y, I84S, S107T
VL: B1 VL with T28S, I29V, G32S, S94T

IC50 [2]: 9.8 nM
Kd [3]: 0.216 nM
koff [3]: 0.000121 s⁻¹
kon [3]: 561000 M⁻¹ s⁻¹
IC50 [4]: 6.1 nM
B3: 6.48 (antibody, V domains shown)
VH: B1 VH with Y114C
VL: DVVLTQSPLSLPVTLGQPASISCRSSQSLVNSDGDTYLSWFQQWPGQSPRRLFYEVSNWDSGVPDRFSGSGSGTDFTLKISRVEAEDVGVYYCMQGTHWLTFGGGTKVEIK

IC50 [2]: 3.2 nM
Kd [6]: 0.04 nM
koff [6]: 1.43e-05 s⁻¹
kon [6]: 354000 M⁻¹ s⁻¹
IC50 [4]: 1.6 nM
B5: 3.2 (antibody, V domains shown)
VH: QVQLVESGGGVVQPGRSLRLSCAASGFTFSSYGIHWVRQAPGKGLEWVAVIWYDGSDIYYADSVKGRFTISRDNSKNTLYLQMNSLRAEDTALYYCARESSGWTFDYWGQGTLVTVSS
VL: QSALTQPASVSGSPGQSITISCTGTSSDVGGYNYVSWYQQHPGKAPKLMIYEVSNRPSGISNRFSGSKSGNTASLTISGLQAEDEADYYCSSYTSSSTIIFGGGTKLTVL

Kd [1]: 1.46 nM
koff [1]: 0.000111 s⁻¹
kon [1]: 75800 M⁻¹ s⁻¹
Kd [6]: 1.57 nM
koff [6]: 1.3e-05 s⁻¹
kon [6]: 8300 M⁻¹ s⁻¹
B7: 2.25 (antibody, V domains shown)
VH: QVQLQQSGPGLVKPSQTLSLTCAISGDSVSSNSAAWNWIRQSPSRGLEWLGRTYYMSKWYNDYAVSVKSRITINPDTSKNQFSLQLNSVTPEDTAVYYCARARYCGGDCYDFDYWGQGTLVTVSS
VL: B6 VL with Q6H, N30S, N31I, Y32S, K42N, E55Q, V58I, Y92F, P96W

Kd [1]: 1.04 nM
koff [1]: 0.000173 s⁻¹
kon [1]: 166000 M⁻¹ s⁻¹
IC50 [2]: 5.5 nM
Kd [3]: 0.068 nM
koff [3]: 3.1e-05 s⁻¹
kon [3]: 453000 M⁻¹ s⁻¹
IC50 [4]: 3.1 nM
B9: 10.1 (antibody, V domains shown)
VH: QVQLQQSGPGLVKPSETLSLTCTVSGASISSYYWSWIRQPAGKGLEWIGRIYASGSTNYNPSLKSRVTMSVDTSKSQFSLNLSSVTAADTAVYYCAREGWERLQDYYYYGLDVWGQGTTVTVSS
VL: B8 VL with F7S, V19A, S31R, T32N, V34L, V35A, Y37N, H92Y, W97L, Q101G

Kd [1]: 1.69 nM
koff [1]: 0.000243 s⁻¹
kon [1]: 144000 M⁻¹ s⁻¹
B11: 6.3 (antibody, V domains shown)
VH: QVLLQESGPGLVKPSQTLSLTCTVSGGSISSGGYYWSWIRQHPGKGLEWIGYINYSGSAYYNPSLKSRVTISVDTSKNQFSLKLSSVTAADTAVYYCARDHWLLRGFDYWGQGTLVTVSS
VL: DIVMTQTPLSLSVTPGQPASISCKSSQSLLHSDGKTYLYWYLQKPGQPPQLLIYEVSNRFSGVPDRFSGSGSGTDFTLKISRVEAEDVGVYYCMQSIQLPRTFGQGTKVEIK
